Measured values published in IntAct's records for PubMed 15105431.

B1: T-cell surface antigen CD2 (Homo sapiens), P06729 (parent)
chain: MSFPCKFVASFLLIFNVSSKGAVSKEITNALETWGALGQDINLDIPSFQMSDDIDDIKWEKTSDKKKIAQFRKEKETFKEKDTYKLFKNGTLKIKHLKTDDQDIYKVSIYDTKGKNVLEKIFDLKIQERVSKPKISWTCINTTLTCEVMNGTDPELNLYQDGKHLKLSQRVITHKWTTSLSAKFKCTAGNKVSKESSVEPVSCPEKGLDIYLIIGICGGGSLLMVFVALLVFYITKRKKQRSRRNDEELETRAHRVATEERGRKPHQIPASTPQNPATSQHPPPPPGHRSQAPSHRPPPPGHRVQHQPQKRPPAPSGTQVHQQKGPPLPRPRVQPKPPHGAAENSLSPSSN
partner: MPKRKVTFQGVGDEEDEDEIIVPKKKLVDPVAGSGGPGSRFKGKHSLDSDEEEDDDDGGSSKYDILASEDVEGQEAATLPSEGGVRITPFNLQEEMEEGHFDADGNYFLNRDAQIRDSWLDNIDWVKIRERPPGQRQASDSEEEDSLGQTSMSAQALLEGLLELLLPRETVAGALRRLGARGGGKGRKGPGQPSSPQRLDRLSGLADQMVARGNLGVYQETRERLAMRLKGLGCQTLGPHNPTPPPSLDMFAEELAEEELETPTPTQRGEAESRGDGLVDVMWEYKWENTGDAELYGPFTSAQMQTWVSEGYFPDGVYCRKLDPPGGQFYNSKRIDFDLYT

Variants of: B1
Conditions: with cd2b2_human CD2BP2, O95400

Effect of a mutation on the interaction: each site, then its substitutions
H295: E decreasing interaction strength
P300: T disrupting interaction strength | L decreasing interaction strength | Q decreasing interaction strength | D disrupting interaction strength | W decreasing interaction strength | F decreasing interaction strength | Y decreasing interaction strength | N decreasing interaction strength | E disrupting interaction strength | I decreasing interaction strength | H decreasing interaction strength | C decreasing interaction strength | S disrupting interaction strength | A disrupting interaction strength | M decreasing interaction strength | R decreasing interaction strength | V disrupting interaction strength
P298: D disrupting interaction strength | N disrupting interaction strength | H decreasing interaction strength | M disrupting interaction strength | E disrupting interaction strength
S294: D decreasing interaction strength | E decreasing interaction strength
H302: E decreasing interaction strength
V304: C decreasing interaction strength | W decreasing interaction strength | E decreasing interaction strength | D decreasing interaction strength
R303: I decreasing interaction strength | A disrupting interaction strength | E disrupting interaction strength | C disrupting interaction strength | P decreasing interaction strength | H decreasing interaction strength | S disrupting interaction strength | T disrupting interaction strength | D disrupting interaction strength | Y disrupting interaction strength | F decreasing interaction strength | N decreasing interaction strength | V disrupting interaction strength | W disrupting interaction strength | Q decreasing interaction strength | M decreasing interaction strength | L decreasing interaction strength
G301: T disrupting interaction strength | K decreasing interaction strength | I decreasing interaction strength | N decreasing interaction strength | S decreasing interaction strength | A disrupting interaction strength | P decreasing interaction strength | Q decreasing interaction strength | V disrupting interaction strength | H decreasing interaction strength | M disrupting interaction strength
P299: A disrupting interaction strength | N decreasing interaction strength | Y disrupting interaction strength | H decreasing interaction strength | Q disrupting interaction strength | T disrupting interaction strength | K decreasing interaction strength | V disrupting interaction strength | E disrupting interaction strength | D disrupting interaction strength | I decreasing interaction strength | C decreasing interaction strength | F decreasing interaction strength | L disrupting interaction strength
R296: D disrupting interaction strength | A decreasing interaction strength | C decreasing interaction strength | L decreasing interaction strength | M decreasing interaction strength
